# In the supplement of paper PMC9112550, “Optimization of the antimicrobial peptide Bac7 by deep mutational scanning” (BMC Biology, 2022):
# System: Escherichia coli TOP10
# Test: shrunken log2 fold change of peptide-encoding DNA abundance (4.5 h post-induction vs induction); higher = less antimicrobial activity (less host growth inhibition)
# Conditions: time post-induction: 4.5 h; library: site-saturation at positions 5, 18, 19, 20
# 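Further: peptides expressed intracellularly from a pBAD plasmid library in pooled LB shake-flask culture, induced with 0.3% L-arabinose, DNA abundance read by NGS, three biological replicates, DESeq2 with apeglm shrinkage.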
row,Sequence,shrunken log2 fold change
1,RRIRKRPPRLPRPRPRPRISPRP,-0.258
2,RRIRKRPPRLPRPRPRPRIYPRP,-0.0634
3,RRIRKRPPRLPRPRPRPRKFPRP,0.106
4,RRIRKRPPRLPRPRPRPRKGPRP,-0.0408
5,RRIRKRPPRLPRPRPRPRKHPRP,0.328
6,RRIRKRPPRLPRPRPRPRKTPRP,0.303
7,RRIRKRPPRLPRPRPRPRKWPRP,0.448
8,RRIRKRPPRLPRPRPRPRLVPRP,0.338
9,RRIRKRPPRLPRPRPRPRLWPRP,1.01
10,RRIRKRPPRLPRPRPRPRNAPRP,0.57
11,RRIRKRPPRLPRPRPRPRPLPRP,0.73
12,RRIRKRPPRLPRPRPRPRPMPRP,0.585
13,RRIRKRPPRLPRPRPRPRPSPRP,0.585
14,RRIRKRPPRLPRPRPRPRQQPRP,0.395
15,RRIRKRPPRLPRPRPRPRRCPRP,0.444
16,RRIRKRPPRLPRPRPRPRSMPRP,-0.164
17,RRIRKRPPRLPRPRPRPRTKPRP,1.08
18,RRIRKRPPRLPRPRPRPRWIPRP,0.112
19,RRIRKRPPRLPRPRPRPRWMPRP,0.273
20,RRIRKRPPRLPRPRPRPRYWPRP,0.173
21,RRIRKRPPRLPRPRPRPSAHPRP,0.164
22,RRIRKRPPRLPRPRPRPSCFPRP,0.109

row,Sequence,shrunken log2 fold change
1,RRIRKRPPRLPRPRPRPSCHPRP,-0.132
2,RRIRKRPPRLPRPRPRPSDNPRP,0.0936
3,RRIRKRPPRLPRPRPRPSDRPRP,0.0691
4,RRIRKRPPRLPRPRPRPSDTPRP,0.322
5,RRIRKRPPRLPRPRPRPSEIPRP,0.157
6,RRIRKRPPRLPRPRPRPSFHPRP,-0.219
7,RRIRKRPPRLPRPRPRPSHDPRP,-0.203
8,RRIRKRPPRLPRPRPRPSICPRP,0.242
9,RRIRKRPPRLPRPRPRPSIPPRP,-1.13
10,RRIRKRPPRLPRPRPRPSLGPRP,0.343
11,RRIRKRPPRLPRPRPRPSLVPRP,0.174
12,RRIRKRPPRLPRPRPRPSNPPRP,-0.0952
13,RRIRKRPPRLPRPRPRPSNTPRP,-0.231
14,RRIRKRPPRLPRPRPRPSPCPRP,0.13
15,RRIRKRPPRLPRPRPRPSPDPRP,0.344
16,RRIRKRPPRLPRPRPRPSPEPRP,0.525
17,RRIRKRPPRLPRPRPRPSQGPRP,0.0922
18,RRIRKRPPRLPRPRPRPSRVPRP,0.24
19,RRIRKRPPRLPRPRPRPSTLPRP,0.252
20,RRIRKRPPRLPRPRPRPSWGPRP,0.00315
21,RRIRKRPPRLPRPRPRPSWIPRP,-0.487
22,RRIRKRPPRLPRPRPRPSYSPRP,-0.413

row,Sequence,shrunken log2 fold change
1,RRIRKRPPRLPRPRPRPTAGPRP,0.581
2,RRIRKRPPRLPRPRPRPTCTPRP,0.314
3,RRIRKRPPRLPRPRPRPTEHPRP,0.279
4,RRIRKRPPRLPRPRPRPTFSPRP,0.148
5,RRIRKRPPRLPRPRPRPTFWPRP,0.36
6,RRIRKRPPRLPRPRPRPTGEPRP,0.954
7,RRIRKRPPRLPRPRPRPTGTPRP,0.563
8,RRIRKRPPRLPRPRPRPTHKPRP,0.658
9,RRIRKRPPRLPRPRPRPTIAPRP,0.541
10,RRIRKRPPRLPRPRPRPTICPRP,-0.0104
11,RRIRKRPPRLPRPRPRPTIKPRP,0.104
12,RRIRKRPPRLPRPRPRPTKMPRP,0.229
13,RRIRKRPPRLPRPRPRPTMNPRP,-0.00264
14,RRIRKRPPRLPRPRPRPTMVPRP,0.27
15,RRIRKRPPRLPRPRPRPTPCPRP,0.692
16,RRIRKRPPRLPRPRPRPTRTPRP,0.951
17,RRIRKRPPRLPRPRPRPTSKPRP,0.443
18,RRIRKRPPRLPRPRPRPTSRPRP,0.159
19,RRIRKRPPRLPRPRPRPTTAPRP,0.271
20,RRIRKRPPRLPRPRPRPTTDPRP,0.385
21,RRIRKRPPRLPRPRPRPTTLPRP,0.0155
22,RRIRKRPPRLPRPRPRPTVQPRP,0.777

row,Sequence,shrunken log2 fold change
1,RRIRKRPPRLPRPRPRPTWSPRP,0.278
2,RRIRKRPPRLPRPRPRPTWWPRP,0.0302
3,RRIRKRPPRLPRPRPRPTYLPRP,-0.201
4,RRIRKRPPRLPRPRPRPVAEPRP,0.973
5,RRIRKRPPRLPRPRPRPVANPRP,0.0525
6,RRIRKRPPRLPRPRPRPVAPPRP,0.528
7,RRIRKRPPRLPRPRPRPVASPRP,0.533
8,RRIRKRPPRLPRPRPRPVDTPRP,0.0388
9,RRIRKRPPRLPRPRPRPVEQPRP,0.12
10,RRIRKRPPRLPRPRPRPVFGPRP,0.176
11,RRIRKRPPRLPRPRPRPVFTPRP,-0.0937
12,RRIRKRPPRLPRPRPRPVGCPRP,0.266
13,RRIRKRPPRLPRPRPRPVICPRP,0.115
14,RRIRKRPPRLPRPRPRPVIEPRP,0.15
15,RRIRKRPPRLPRPRPRPVIFPRP,0.265
16,RRIRKRPPRLPRPRPRPVIVPRP,-0.0233
17,RRIRKRPPRLPRPRPRPVKNPRP,0.00783
18,RRIRKRPPRLPRPRPRPVKSPRP,0.155
19,RRIRKRPPRLPRPRPRPVKYPRP,0.221
20,RRIRKRPPRLPRPRPRPVLVPRP,-0.0465
21,RRIRKRPPRLPRPRPRPVMRPRP,0.74
22,RRIRKRPPRLPRPRPRPVNSPRP,0.0157

row,Sequence,shrunken log2 fold change
1,RRIRKRPPRLPRPRPRPVPSPRP,-0.156
2,RRIRKRPPRLPRPRPRPVPTPRP,0.916
3,RRIRKRPPRLPRPRPRPVQPPRP,0.0838
4,RRIRKRPPRLPRPRPRPVRRPRP,0.377
5,RRIRKRPPRLPRPRPRPVRTPRP,0.583
6,RRIRKRPPRLPRPRPRPVVAPRP,0.876
7,RRIRKRPPRLPRPRPRPVVCPRP,0.126
8,RRIRKRPPRLPRPRPRPVVMPRP,3.16
9,RRIRKRPPRLPRPRPRPVWRPRP,0.0611
10,RRIRKRPPRLPRPRPRPVYVPRP,-0.0394
11,RRIRKRPPRLPRPRPRPWCDPRP,-0.377
12,RRIRKRPPRLPRPRPRPWDFPRP,0.953
13,RRIRKRPPRLPRPRPRPWEIPRP,-0.00947
14,RRIRKRPPRLPRPRPRPWELPRP,0.221
15,RRIRKRPPRLPRPRPRPWFSPRP,-0.329
16,RRIRKRPPRLPRPRPRPWHAPRP,-0.0686
17,RRIRKRPPRLPRPRPRPWHHPRP,-0.197
18,RRIRKRPPRLPRPRPRPWHPPRP,0.143
19,RRIRKRPPRLPRPRPRPWHSPRP,0.0422
20,RRIRKRPPRLPRPRPRPWHTPRP,0.0104
21,RRIRKRPPRLPRPRPRPWHVPRP,-1.06
